In paper PMC3079881 (Developmental cell, 2011):

Target: the molecule itself
Test: negative-stain electron microscopy of purified complexes

B1: Cdc11 (natural protein, S. cerevisiae, UniProt P32458 1-415, looked up)
chain: MSGIIDASSALRKRKHLKRGITFTVMIVGQSGSGRSTFINTLCGQQVVDTSTTILLPTDTSTEIDLQLREETVELEDDEGVKIQLNIIDTPGFGDSLDNSPSFEIISDYIRHQYDEILLEESRVRRNPRFKDGRVHCCLYLINPTGHGLKEIDVEFIRQLGSLVNIIPVISKSDSLTRDELKLNKKLIMEDIDRWNLPIYNFPFDEDEISDEDYETNMYLRTLLPFAIIGSNEVYEMGGDVGTIRGRKYPWGILDVEDSSISDFVILRNALLISHLHDLKNYTHEILYERYRTEALSGESVAAESIRPNLTKLNGSSSSSTTTRRNTNPFKQSNNINNDVLNPASDMHGQSTGENNETYMTREEQIRLEEERLKAFEERVQQELLLKRQELLQREKELREIEARLEKEAKIKQEE
B1: binds.
